Experimental data as given in ChEMBL document CHEMBL1142441, “Stereochemical studies on the novel monoamine oxidase B substrates (1R,6S)- and (1S,6R)-3-methyl-6-phenyl-3-aza-bicyclo[4.1.0]heptane” (Bioorg Med Chem, 2008).

How the values were obtained:
[1] = substrate: [H][C@@]12CN(C)CC[C@]1(c1ccccc1)C2; experiment: (§1) Activity of 50 nM human recombinant MAOB after 30 mins
[2] = substrate: [H][C@]12CN(C)CC[C@@]1(c1ccccc1)C2; experiment: as §1

B1: Amine oxidase [flavin-containing] B (Homo sapiens) (protein)
chain: MSNKCDVVVVGGGISGMAAAKLLHDSGLNVVVLEARDRVGGRTYTLRNQKVKYVDLGGSYVGPTQNRILRLAKELGLETYKVNEVERLIHHVKGKSYPFRGPFPPVWNPITYLDHNNFWRTMDDMGREIPSDAPWKAPLAEEWDNMTMKELLDKLCWTESAKQLATLFVNLCVTAETHEVSALWFLWYVKQCGGTTRIISTTNGGQERKFVGGSGQVSERIMDLLGDRVKLERPVIYIDQTRENVLVETLNHEMYEAKYVISAIPPTLGMKIHFNPPLPMMRNQMITRVPLGSVIKCIVYYKEPFWRKKDYCGTMIIDGEEAPVAYTLDDTKPEGNYAAIMGFILAHKARKLARLTKEERLKKLCELYAKVLGSLEALEPVHYEEKNWCEEQYSGGCYTTYFPPGILTQYGRVLRQPVDRIYFAGTETATHWSGYMEGAVEAGERAAREILHAMGKIPEDEIWQSEPESVDVPAQPITTTFLERHLPSVPGLLRLIGLTTIFSATALGFLAHKRGLLVRV
B1 was tested, and the Km [1] was 221 µM and the Km [2] was 221 µM.
